The values that follow come from article PMC10620681, “Concentration and time-dependent amyloidogenic characteristics of intrinsically disordered N-terminal region of Saccharomyces cerevisiae Stm1” (Frontiers in Microbiology, 2023).

The series deals with the molecule itself. Briefly: thioflavin-T fluorescence (emission spectra and kinetics); 20 uM Th-T with 1-400 uM Stm1_N 1-113; 10 mM sodium phosphate with 10 or 150 mM NaCl, pH 7.4, 25 °C; emission at 0 h, kinetics until 72 h; signal from 50 uM onwards.

B1: Stm1 N-terminal region (Stm1_N^1-113) of Saccharomyces cerevisiae Stm1 (domain or fragment, UniProt P39015 1-113, looked up)
chain: MSNPFDLLGNDVEDADVVVLPPKEIVKSNTSSKKADVPPPSADPSKARKNRPRPSGNEGAIRDKTAGRRNNRSKDVTDSATTKKSNTRRATDRHSRTGKTDTKKKVNQGWGDD
notes: Stm1, Saccharomyces cerevisiae (S288c), stm1 gene YLR150W, residues 1-113 of the 273 amino acids long protein; the insert is 342 nucleotides with the termination codon; Order in the construct: N-terminal His6-tag, GB1 solubility tag, TEV protease cleavage site, Stm1_N 1-113 (vector pDZ1, a modified pET-21a); A few residues from the TEV site and the NdeI site may be left at the N-terminus after …
For the protein B1, the binding result is “binds”.
